Data on 1 molecule can be found in paper PMC2133028.

No end group written: not given here.

In the assay the target is GST-hCASK PDZ fusion protein (residues 489-572) (human). In words: pull-down.

In turn, APTKEFYA-OH [COOH-terminal syndecan-2 peptide (APTKEFYA-COOH)] showed an IC50 of 40 to 70 µM.
